Assay results taken from patent US20140205612A1 (published 2014).

How the values were obtained:
[1] = target: JR-FL(E168K) Env on pseudovirus (HIV-1 JR-FL); experiment: cell-based or functional assay
[2] = target: HIV-1 JR-CSF Env on pseudovirus (HIV-1 JR-CSF, UniProt P20871 32-848); experiment: cell-based or functional assay
ADA Env on pseudovirus = ADA Env on pseudovirus (HIV-1 ADA); experiment: cell-based or functional assay
[3] = target: 92RW020 Env on pseudovirus (HIV-1 92RW020); experiment: cell-based or functional assay
[4] = target: T1, recombinant monomeric gp120 JR-CSF (HIV-1 JR-CSF, UniProt P20871 32-503); experiment: mAb Specificity column, ELISA screen
T1 construct: domain: gp120; also called JR-CSF gp120; JR-CSFgp120
Method: In anti-gp120 ELISA, recombinant gp120 (0.5 μg/ml) was captured on 384 well ELISA plates pre-coated (at 4° C. overnight) with goat anti-gp120 (5 μg/ml) in BSA-containing assay buffer (PBS with 0.05% Tween-20) for 1 hr at room temperature. After excess gp120 was removed and plates were washed thrice with assay buffer, B cell culture supernatants diluted 5-fold was added to incubate for 1 hr at room temperature. Following three washes in assay buffer, secondary HRP-conjugated goat anti-human Ig Fc in BSA-containing assay buffer was added and incubated for about 1 hr at room temperature. 3,3′,5,5′-tetramethylbenzidine (TMB) substrate was used to develop the colorimetric readouts after washing the ELISA plates 3 times.

Binder	IC50 (ug/ml), pseudovirus neutralization, TZM-bl assay [1] [µg/mL]	IC50 (ug/ml), pseudovirus neutralization, TZM-bl assay [2] [µg/mL]	IC50 (ug/ml), pseudovirus neutralization, TZM-bl assay (ADA Env on pseudovirus) [µg/mL]	IC50 (ug/ml), pseudovirus neutralization, TZM-bl assay [3] [µg/mL]	binding result [4]
1443_C16 (PG16) (TCN-116) (antibody, V domains shown) VH: QEQLVESGGGVVQPGGSLRLSCLASGFTFHKYGMHWVRQAPGKGLEWVALISDDGMRKYHSDSMWGRVTISRDNSKNTLYLQFSSLKVEDTAMFFCAREAGGPIWHDDVKYYDFNDGYYNYHYMDVWGKGTTVTVSS VL: QSALTQPASVSGSPGQTITISCNGTSSDVGGFDSVSWYQQSPGKAPKVMVFDVSHRPSGISNRFSGSKSGNTASLTISGLHIEDEGDYFCSSLTDRSHRIFGGGTKVTVLG	0.006	0.001	0.004	0.09	–
1496_C09 (PG9) (TCN-109) (antibody, V domains shown) VH: QRLVESGGGVVQPGSSLRLSCAASGFDFSRQGMHWVRQAPGQGLEWVAFIKYDGSEKYHADSVWGRLSISRDNSKDTLYLQMNSLRVEDTATYFCVREAGGPDYRNGYNYYDFYDGYYNYHYMDVWGKGTTVTVSS VL: QSALTQPASVSGSPGQSITISCNGTSNDVGGYESVSWYQQHPGKAPKVVIYDVSKRPSGVSNRFSGSKSGNTASLTISGLQAEDEGDYYCKSLTSTRRRVFGTGTKLTVLG	–	–	0.2	0.1	–
1456_P20 (PG20) (antibody, human IgG1, kappa, V domains shown) VH: QVRLVQSGPEVKKPGSSVTVSCQASGGTFSSYAFTWVRQAPGQGLEWLGMVTPIFGEAKYSQRFEGRVTITADESTSTTSIELRGLTSEDTAIYYCARDRRAVPIATDNWLDPWGQGTLVTVSS VL: DIQLTQSPSSLSASVGDRVSITCRASQTINNYLNWYQQTPGKAPKLLIYGASNLQNGVPSRFSGSGSGTDFTLTISSLQPEDFATYYCQQSFSTPRTFGQGTRLDIKR	–	–	–	–	binds
1460_G14 (PGG14) (antibody, human IgG1, kappa, V domains shown) VH: QVLLVQSGTEVKKPGSSVKVSCQASGGAFSSYAFSWVRQAPGQGLEWMGMITPVFGETKYAPRFQGRLTLTAEESLSTTYMELRSLTSDDTAFYYCTRDRRVVPMATDNWLDPWGQGTLVTVSS VL: DIQLTQSPSSLSASVGDRVTVTCRASQTIHTYLNWYQQIPGKAPKLLIYGASTLQSGVPSRFSGSGSGTDFTLTINSLQPEDFATYYCQQSYSTPRTFGQGTRLDIKR	–	–	–	–	binds
1495_C14 (PGC14) (antibody, human IgG1, lambda, V domains shown) VH: DGHLVQSGVEVKKTGATVKISCKVSGYSFIDYYLHWVQRAPGKGLEWVGLIDPENGEARYAEKFQGRVTIIADTSIDTGYMEMRSLKSEDTAVYFCAAGAVGADSGSWFDPWGQGTLVTVSS VL: SYELTQPPSVSVSPGQTASITCSGSKLGDKYVSWYQLRPGQSPILVMYENDRRPSGIPERFSGSNSGDTATLTISGTQALDEADFYCQAWETTTTTFVFFGGGTQLTVLG	–	–	–	–	binds
